{"source": "paper doi:10.1101/2020.05.28.121053", "molecules": {"B1": {"name": "fluorescent β-PIX peptide (peptide)", "peptide": "NDPAWDETNL", "modifications": "also: fluorescent label, kind and position not given here"}, "B2": {"name": "decameric peptide matching the final 10 residues of the mbGIPC_(SFDEI) construct (peptide)", "peptide": "VEPKKSFDEI"}}, "assay_in_all_cases": "fluorescence polarisation", "key": {"[1]": {"biological_target": "mbGIPC PDZ domain (Monosiga brevicollis GIPC homologue, original construct) (Monosiga brevicollis)"}, "[2]": {"biological_target": "mbSHANK1 PDZ domain (Monosiga brevicollis SHANK1 homologue) (Monosiga brevicollis)"}, "[3]": {"biological_target": "mbGIPC PDZ domain (Monosiga brevicollis GIPC homologue, original construct) (Monosiga brevicollis)", "remark": "listed apart in the source"}}, "note": "Read-outs that look alike come from different tables or passages of the source. Ends that are not written are not given here."}
{"molecule": "GAIP C-terminal peptide", "values": [{"measurement": "Ki", "setting": "[1]", "result": 0.14, "unit": "µM"}]}
{"molecule": "tyrosinase-related protein 1 (TYRP1) C-terminal peptide", "values": [{"measurement": "fold worse affinity than GAIP", "setting": "[1]", "result": 10, "unit": "fold"}]}
{"molecule": "β-1 adrenergic receptor (B1AR) C-terminal peptide", "values": [{"measurement": "fold worse affinity than GAIP", "setting": "[1]", "result": 20, "unit": "fold"}]}
{"molecule": "B1", "values": [{"measurement": "fold higher affinity than the GIRK3 peptide", "setting": "[2]", "result": 62, "unit": "fold"}]}
{"molecule": "B2", "values": [{"measurement": "Ki", "setting": "[3]", "result": "> 1000", "unit": "µM"}]}
